This note sets out measurements from PMC9982069 (PNAS Nexus, 2023).

The data set “cross-linking” deals with the molecule itself. The data set can be described thus: cross-linking.
The data set “crystal structure” deals with the molecule itself. The data set can be described thus: crystal structure.

One may read the stoichiometry N as a count of units in the complex or per binding partner.

B1: batCOV5-M, M protein of Pipistrellus bat coronavirus HKU5, affinity- and SEC-purified (cross-linking, MST) (natural protein)
chain: MASSNVTLSNDEVLRLVKDWNFTWSVVFLLITIVLQYGYPSRSMFVYVIKMFVLWLLWPASMALSIFCAVYPIDLASQIISGILAATSCAMWISYFVQSIRLFMRTGSWWSFNPESNCLLNVPIGGTTVVRPLVEDSTSVTAVVTDGYLKMAGMHFGACDFQRLPSEVTVAKPNVLIALKMIKRQAYGTNSGVAIYHRYKAGNYRRPPIIQDQELALLRA
As for B1, in “cross-linking”, the “stoichiometry N” value was no less than 2.

B2: batCOV5-MCTD-sfGFP, carboxy-terminal domain of batCOV5-M between the two halves of a split superfold (domain or fragment)
chain: ESNCLLNVPIGGTTVVRPLVEDSTSVTAVVTDGYLKMAGMHFGACDFQRLPSEVTVAKPNVLIALKMIKRQAYGTNSGVAIYHRYKAGN
Consider B2, for which, in the data set “crystal structure”, the “stoichiometry N” value was found to be 4.
